T1: full-length hCD22-ECD (668aa) displayed on yeast cells (human, UniProt P20273 20-687)
T1 construct: extracellular domain; Yeast surface display fusion Aga2-HA-(insert)-MYC; also called Bin 8; CD22-ECD Full lenght; not shown: Aga2-HA display fusion partner of vector pPNL6; MYC tag
T1 sequence (looked up): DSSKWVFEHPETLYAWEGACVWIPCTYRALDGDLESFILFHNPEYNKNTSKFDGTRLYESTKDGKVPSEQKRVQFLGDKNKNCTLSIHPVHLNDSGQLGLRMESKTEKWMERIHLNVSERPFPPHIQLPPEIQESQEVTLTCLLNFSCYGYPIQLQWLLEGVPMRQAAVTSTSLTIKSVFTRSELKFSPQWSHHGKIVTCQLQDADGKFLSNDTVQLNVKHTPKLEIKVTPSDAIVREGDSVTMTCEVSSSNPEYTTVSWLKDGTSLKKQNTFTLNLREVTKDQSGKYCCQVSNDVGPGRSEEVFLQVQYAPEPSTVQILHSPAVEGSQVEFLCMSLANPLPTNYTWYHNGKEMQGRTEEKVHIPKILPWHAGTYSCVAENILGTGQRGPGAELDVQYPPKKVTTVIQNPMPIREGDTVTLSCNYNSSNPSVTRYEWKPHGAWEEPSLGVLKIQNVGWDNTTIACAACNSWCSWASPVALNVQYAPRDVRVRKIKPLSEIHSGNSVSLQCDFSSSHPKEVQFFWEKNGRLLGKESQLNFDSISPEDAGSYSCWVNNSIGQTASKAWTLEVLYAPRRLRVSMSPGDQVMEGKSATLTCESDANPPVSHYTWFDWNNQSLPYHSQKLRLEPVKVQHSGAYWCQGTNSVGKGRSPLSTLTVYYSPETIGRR

T2: hCD22 fragment Bin 2, IVR2 (aa111-230), displayed on yeast cells (human, UniProt P20273 130-249)
T2 construct: range 111-230; Range is counted on the mature ECD, not on the UniProt entry; on P20273 it would be 130-249 (my arithmetic); not shown: Aga2-HA display fusion partner of vector pPNL6; MYC tag
T2 sequence (looked up): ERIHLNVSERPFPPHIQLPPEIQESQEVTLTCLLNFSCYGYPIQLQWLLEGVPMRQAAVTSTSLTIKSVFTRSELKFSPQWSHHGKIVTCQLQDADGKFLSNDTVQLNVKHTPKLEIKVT

T3: hCD22 fragment Bin 5, IVR5 (aa391-490), displayed on yeast cells (human, UniProt P20273 410-509)
T3 construct: range 391-490; Range is counted on the mature ECD, not on the UniProt entry; on P20273 it would be 410-509 (my arithmetic); not shown: Aga2-HA display fusion partner of vector pPNL6; MYC tag
T3 sequence (looked up): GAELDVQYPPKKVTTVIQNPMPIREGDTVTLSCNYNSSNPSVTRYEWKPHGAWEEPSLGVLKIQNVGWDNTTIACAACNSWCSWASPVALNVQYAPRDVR

T4: recombinant extracellular domain of the predominant human CD22-beta isoform (CD22-ECD) (human, UniProt P20273 20-687, CHO-expressed glycoprotein. Capture on an SA chip implies biotinylation, but the patent does not state it for SPR.)
T4 construct: Expressed in CHO-3E7 cells, IMAC and SEC purified, monomeric fraction; Results say it was immobilized onto a CM5 dextran chip; also called human CD22-ECD; hCD22 ecto-domain
T4 sequence: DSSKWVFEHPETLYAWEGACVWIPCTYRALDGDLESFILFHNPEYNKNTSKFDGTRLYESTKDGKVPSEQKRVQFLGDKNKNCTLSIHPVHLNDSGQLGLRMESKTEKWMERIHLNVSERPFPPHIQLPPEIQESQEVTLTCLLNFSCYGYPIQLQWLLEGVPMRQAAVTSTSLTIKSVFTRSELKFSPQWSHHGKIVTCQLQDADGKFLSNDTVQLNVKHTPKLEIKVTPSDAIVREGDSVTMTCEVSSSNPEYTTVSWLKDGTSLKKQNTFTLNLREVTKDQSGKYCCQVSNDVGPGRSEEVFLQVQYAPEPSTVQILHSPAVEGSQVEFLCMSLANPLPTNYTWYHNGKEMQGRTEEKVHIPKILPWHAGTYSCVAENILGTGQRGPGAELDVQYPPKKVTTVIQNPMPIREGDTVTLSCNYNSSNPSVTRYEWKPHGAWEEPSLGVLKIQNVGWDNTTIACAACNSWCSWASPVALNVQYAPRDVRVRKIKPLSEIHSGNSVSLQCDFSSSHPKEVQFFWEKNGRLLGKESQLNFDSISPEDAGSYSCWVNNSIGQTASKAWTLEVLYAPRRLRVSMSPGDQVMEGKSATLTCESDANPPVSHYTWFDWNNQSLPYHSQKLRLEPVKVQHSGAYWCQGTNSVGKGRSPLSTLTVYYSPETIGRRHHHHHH


Assays:
[1] = target: T1, full-length hCD22-ECD (668aa) displayed …; experiment: yeast display cell ELISA, biotinylated sdAb 250 nM
Description: (§1) The YSD vector (pPNL6) was from The Pacific Northwest National Laboratory, USA. […] The HRP activity was assayed with substrate TMB (tetramethyl benzidine) according to the manufacture’s conditions and read at OD₄₅₀.
(§2) The wells that gave rise to OD₄₅₀ above 0.25 were highlighted, indicating significant antibody-antigen interactions. All the sdAbs tested except hCd22_1ug-14 were assigned to specific Bin(s).

[2] = target: T2, hCD22 fragment Bin 2, IVR2 (aa111-230), …; experiment: yeast display cell ELISA
Description: as §1, §2

[3] = target: T3, hCD22 fragment Bin 5, IVR5 (aa391-490), …; experiment: yeast display cell ELISA
Description: as §1, §2

[4] = target: T4, recombinant extracellular domain of the …; experiment: SPR, Biacore T200, VHH over immobilized CD22-ECD
Description: For surface Plasmon resonance, 21 selected VHHs were passed though size exclusion columns, superdex 75 (GE Healthcare), respectively, in 10 mM HEPES, pH 7.4, containing 150 mM NaCl, 3 mM EDTA, monomeric sdAb fractions were collected and protein concentrations were determined by measuring absorbance at 280 nm (A280). Analysis were performed with Biacore T200 instrument (GE Healthcare). All measurements were carried out at 25° C. in 10 mM HEPES, pH 7.4, containing 150 mM NaCl, 3 mM EDTA and 0.005% surfactant P20 (GE Healthcare). Approximately 1919 RUs of the recombinant monomeric CD22-ECD (obtained after SEC purification of the CD22-ECD) were captured on SA sensor chip (GE Healthcare) at a flow rate of 5 uL/min. Various concentration of the monomeric VHHs were injected over CD22-ECD surface, respectively using an SA surface as a reference at a flow rate of 40 µL/min. Surfaces were generated by washing with running buffer. Data were analysed with BIAevaluation 4.1 software.
The monomeric fraction of all 21 VHHs were used for SPR experiment where the human CD22-ECD was immobilized onto the CM5 dextran chip and various VHH concentration (0.6-400 nM) were passed over the sensor chip. […] All of the data collected fit a 1:1 binding model.

Binder | OD450 [1] [OD450] | Kd [4] [nM] | koff [4] [s⁻¹] | kon [4] [M⁻¹ s⁻¹] | binding result [2] | binding result [3]
hCD221ug-80 (VHH, single biotin at the VHH C-terminal (biotinylation signal sequence), llama VHH, expressed in E. coli TG1, IMAC purified, monomeric SEC fraction; also called VHH # 1; 2-hCD22 1ug-80) VHH: QVQLVESGGGLVQPGGSLRLSCTFSGFTLDYYVMVWFRQAPGKEREAVSCITSDGVTYYADSVKGRFTISRDNAKNTVYLQMNRVKPEDTAVYYCAVDKPFYDGGIQYTCPVDFDSWGQGAQVTVSS | 1.81 | 30.3 | 0.000633 | 20900 | no binding (tested: OD450 not above 0.25; sdAb 250 nM) | no binding (tested: OD450 not above 0.25; sdAb 250 nM)
hCD22pas-32 (VHH, single biotin at the VHH C-terminal (biotinylation signal sequence), llama VHH, expressed in E. coli TG1, IMAC purified, monomeric SEC fraction; also called VHH # 15; 6-hCD22 pas-32) VHH: QVQLVESGGGLVQAGGSLRLSCAVSGRIFRSYVLGWFRQAPGKERELVARIGWSDTYYADSVKGRFTISRDNAKNTVDLQMNSLKPEDTAVYYCAANSPPYGPQRDEFGYWGQGTQVTVSS | 0.289 | 23.4 | 0.00369 | 158000 | no binding (tested: OD450 not above 0.25; sdAb 250 nM) | no binding (tested: OD450 not above 0.25; sdAb 250 nM)
hCD22pas-64 (VHH, single biotin at the VHH C-terminal (biotinylation signal sequence), llama VHH, expressed in E. coli TG1, IMAC purified, monomeric SEC fraction; also called VHH # 25; 7-hCD22 pas-64) VHH: QVQLVESGGGLVQAGGSLRLSCAASGSTFSLNTMAWYRQAPGNQREYVAAASSDGYTNYADSVRGRFTISRDNDKNTMYLQMNSLRPEDTAVYYCTWGTGRFADYIYWGQGTQVTVSS |  | 250 | 0.0271 | 108000 | no binding (tested: OD450 not above 0.25; sdAb 250 nM) | no binding (tested: OD450 not above 0.25; sdAb 250 nM)
hCD22pas-24 (VHH, single biotin at the VHH C-terminal (biotinylation signal sequence), llama VHH, expressed in E. coli TG1, IMAC purified, monomeric SEC fraction; also called VHH # 26; 8-hCD22 pas-24) VHH: QVQLVESGGGLVQAGGSLRLSCSASGITSSINSMGWHRQAPGKQRELVASIGRGGSGSTKYADSGKGRFLISRDNNKNILFLEMNSLKPEDTADYYCLEVTTDLSSYWGRGTQVTVSS | 1.18 | 26 | 0.00386 | 148000 | no binding (tested: OD450 not above 0.25; sdAb 250 nM) | no binding (tested: OD450 not above 0.25; sdAb 250 nM)

The next binders have a lower Kd [4] than those just listed; values first:

OD450 [1] [OD450] | Kd [4] [nM] | koff [4] [s⁻¹] | kon [4] [M⁻¹ s⁻¹] | Binder | binding result [2] | binding result [3]
1.42 | 9.59 | 0.00114 | 119000 | hCD221ug-36 (VHH, single biotin at the VHH C-terminal (biotinylation signal sequence), llama VHH, expressed in E. coli TG1, IMAC purified, monomeric SEC fraction; also called VHH # 22; 4-hCD22 1ug-36) VHH: EVQLVDSGGGLVQAGGSLRVSCEASGITFSRAAMGWYRQRPGKERERVAVVNSDSSTIYADSVKGRFTISRDNAKNTVYLQMNSLEPEDTAVYYCWSPGFGSYWGQGTQVTVSS | no binding (tested: OD450 not above 0.25; sdAb 250 nM) | no binding (tested: OD450 not above 0.25; sdAb 250 nM)
1.19 | 2.91 | 0.000675 | 232000 | hCD221ug-13 (VHH, single biotin at the VHH C-terminal (biotinylation signal sequence), llama VHH, expressed in E. coli TG1, IMAC purified, monomeric SEC fraction; also called VHH # 21; 1-hCD22 1ug-13) VHH: QVQLVESGGGLVQAGDSLRLSCAGSGGSFSSVTMAWFRQAPGKDREFVAAITWSSPSTYYADSVKGRFTISRDNAKNTVYLQMNSLKPEDTAVYYCAGGRTGRGTSADTDEYNYWGQGTQVTVSS | no binding (tested: OD450 not above 0.25; sdAb 250 nM) | no binding (tested: OD450 not above 0.25; sdAb 250 nM)
0.332 | 3.68 | 0.00176 | 477000 | hCD221ug-10 (VHH, single biotin at the VHH C-terminal (biotinylation signal sequence), llama VHH, expressed in E. coli TG1, IMAC purified, monomeric SEC fraction; also called VHH # 23; 5-hCD22 1ug-10) VHH: QVQLVESGGGLVQAGGSLSVSCTASESTFSIMMGWFRQAPGKQREMVAVINSAGSTNYADSAEGRFTISRDLAKKTVSLQMNSLKPEDTAVYYCYVDGYFGQGTQVTVSS | no binding (tested: OD450 not above 0.25; sdAb 250 nM) | no binding (tested: OD450 not above 0.25; sdAb 250 nM)
1.48 | 0.546 | 0.000681 | 1.25e+06 | hCD221ug-61 (VHH, single biotin at the VHH C-terminal (biotinylation signal sequence), llama VHH, expressed in E. coli TG1, IMAC purified, monomeric SEC fraction; also called VHH # 14; 3-hCD22 1ug-61) VHH: QVQLVESGGGLVQAGGSLRLSCAASMSSFSQYVMYWYRQAPGKQRELVATITSYSNTNYADSVKGRFTISRDNAKSIAYLQMDSLKPEDTAVYYCNAQYGSTFIRNHWDDWGQGTQVTVSS | no binding (tested: OD450 not above 0.25; sdAb 250 nM) | no binding (tested: OD450 not above 0.25; sdAb 250 nM)
